Data on one substance can be found in publication PMC4529235.

Bounds are passed on as bounds.

Assay [1] has as its target trimeric ASIC1a concatemeric fusion protein 3_(ASIC)FP (H8-(hA1a-N1Q7)2-hA1a) (human) (UniProt P78348). The assay is described as follows: cross-linking; oxidation with 0.3 mM NaTT (20 min, 4°C) of Ni-NTA affinity-purified fractions from Xenopus oocytes and CHO cells, on the beads; non-reducing SDS-PAGE, anti-ASIC1a western blot. (Immunoblotting shows a protein as a band on a membrane.)

For assay [2] the target is unchanged. The assay is described as follows: cross-linking; BMOE (0.5 or 2 mM) at the cell surface of Xenopus oocytes and CHO cells before lysis, cell-surface biotinylated fractions, SDS-PAGE under reducing conditions, anti-ASIC1a western blot; band intensities pooled over oocytes and CHO cells.

Regarding “single ASIC1a subunit available in cells expressing 3_(ASIC)FP”, the percent of ASIC1a that migrates as the tetramer in assay [1] and in assay [2] was over 60% throughout.
